From patent publication US20150125449A1 (published 2015) come the findings set out here.

For assay [1], the target named is T1, Her2 on the surface of Her2-expressing cell lines (human, UniProt P04626 23-1255).
T1 construct: whole, on cells; The cell line of each value is named under assay; also called ErbB2; Her2 receptor
Nature of the assay: flow cytometry, SKOV3 cells. (In general: Flow cytometry measures light scatter and fluorescence of single cells or particles in a stream.)

The target in assay [2] is T1, Her2 on the surface of Her2-expressing …. Nature of the assay: flow cytometry, SKOV3 cells. The source holds these as a separate data set.
The next assay concerns the target Recombinant human HER2 (human, UniProt P04626 23-652). Nature of the assay: SPR, antibody captured on anti-human IgG, recombinant human HER2 as analyte, 1:1 Langmuir; average, n 4. A general note: In SPR one partner is held on a chip, and binding of the other changes the refractive index at the surface.
The target of assay [3] is T1, Her2 on the surface of Her2-expressing …. Nature of the assay: flow cytometry, SKBR3 cells.
Assay [4] has the same target. Briefly: flow cytometry, MDA-MB-231 cells.

B1: OA4-scFv-BID2 (antibody)
chain 1: QVQLVQSGAEVKKPGESLKISCKGSGYSFTSYWIAWVRQMPGKGLEYMGLIYPGDSDTKYSPSFQGQVTISVDKSVSTAYLQWSSLKPSDSAVYFCARHDVGYCTDRTCAKWPEWLGVWGQGTLVTVSSGGGGSSGGGSGGGGSQSVLTQPPSVSAAPGQKVTISCSGSSSNIGNNYVSWYQQLPGTAPKLLIYDHTNRPAGVPDRFSGSKSGTSASLAISGFRSEDEADYYCASWDYTLSGWVFGGGTKLTVLGAAEPKSSDKTHTCPPCPAPELLGGPSVFLFPPKPKDTLMISRTPEVTCVVVDVSHEDPEVKFNWYVDGVEVHNAKTKPREEQYNSTYRVVSVLTVLHQDWLNGKEYKCKVSNKALPAPIEKTISKAKGQPREPQVYTYPPSRDELTKNQVSLTCLVKGFYPSDIAVEWESNGQPENNYKTTPPVLDSDGSFALVSKLTVDKSRWQQGNVFSCSVMHEALHNHYTQKSLSLSPGK
chain 2: not shown
On to B1, for which the Bmax in assay [1] was 7950.

B2: OA2-Fab-Her2 (antibody)
chain 1: not shown
chain 2: not shown
chain 3: EPKSSDKTHTCPPCPAPELLGGPSVFLFPPKPKDTLMISRTPEVTCVVVDVSHEDPEVKFNWYVDGVEVHNAKTKPREEQYNSTYRVVSVLTVLHQDWLNGKEYKCKVSNKALPAPIEKTISKAKGQPREPQVYVYPPSRDELTKNQVSLTCLVKGFYPSDIAVEWESNGQPENNYKTTPPVLDSDGSFALVSKLTVDKSRWQQGNVFSCSVMHEALHNHYTQKSLSLSPGK
The term Kd denotes a measure of binding affinity in units of concentration. Usually koff stands for the first-order rate constant of dissociation. Broadly, the kon is a measure of how fast the partners come together. In assay [2], B2 gave a Bmax of 7070 and a Kd of 4.72 nM. In the assay with Recombinant human HER2, the dissociation constant (Kd) is 0.435 nM, the off-rate constant (koff) was determined as 0.000131 s⁻¹ and the on-rate constant (kon) worked out at 313000 M⁻¹ s⁻¹. In assay [3], this molecule displayed a Bmax of 64800 and a dissociation constant (Kd) of 10.8 nM. In assay [4], the Bmax was 412 and the affinity, expressed as Kd, was 9.97 nM.
